assay: soluble on expression in E. coli; label from the status in PepcDB or PDB records

Sequence	soluble on expression in E. coli
MEPKRIREGYLVKKGSVFNTWKPMWVVLLEDGIEFYKKKSDNSPKGMIPLKGSTLTSPCQDFGKRMFVLKITTTKQQDHFFQAAFLEERDAWVRDIKKAIKCIEGGQKFARKSTRRSIRLPETIDLGALYLSMKDPEKGIKELNLEKDKKVFNHCLTGSGVIDWLVSNKLVRNRQEGLMISASLLSEGYLQPAGDLSKNAADGIAENPFLDSPDAFYYFPDSGFFCEENSSDDDVILREEFRGVIIKQGCLLKQGTGENWKVRKFILREDPAYLHYYDPAGGEDPLGAVHLRGCVVTSVESSHDVKKSDEENLFEIITADEVHYYLQAATSKGRTEWIKAIQVASRTGK	soluble
MEPNPSDPVLTDRIQAIVTTEKSIDEMMKCAREIIQDLGKEKQIGKNKMEDNANNFKKLITQVENELSAQMQYLSHVCVGSSHQGSTFGVLQNSLLAQSGLSSLHSELFQIVRYLDPTSDEPQTTEEDEEDGSDDLNEDGADGAPSSTVTSSTTDGSGGGDDAASSSAPRSQEESGRQMTDDDDDMEQ	not soluble
MEPSTIVKLDVGGKIFKTTIFTLCKHDSMLKTMFCTDVPVTKNEEGSVFIDRDSKHFRLILNFLRDGQIALPDSDREVREVLAEASYFLLDPLIELCGERLEQSLNPYYHLVSTVLEARKIIFATEKPIVVLRLPVYIATSGNQSYYFSETKFRELSEEYHKHVAFILITEPEFNEDCSWSFFLRAKKITARIKGPMDCNLVEECMPKTVERRREKKTWH	not soluble
MEQLGSEPETYQIMKTIEKSIIENDNVDLEQYLLFWEHVCNVMCSWGTIFSFVVKDVTAKLEKLTQMRSSDPDSYRTIIGMATKESENGTIRNQKPNRSGTGHLMVLNRALEFVIDLLDGVFTSNDENVSTIARSSYDKHLSQLHSWPIRTAVAAALYTLPRKPEFLCRLRGDMPEDDDNQFHDIFNRDGRDIVRRVNKLVENFELTDYNPSA	not soluble
MEQLTLQVEGMSCGHCVNAIESSVKELNGVEQVKVQLAEGTVEVTIDSSVVTLKDIVAVIEDQGYDVQ	not soluble
MEQQLKDIISACDLAIQNEDFDTLMNYYSEDAVLVVKPGMIARGKEEIKKAFITIANYFNHHIVPTQGKMILLEAGDTVLVLSQTLLDSDKKDSEYAMERRATYVFKKNAQGEWLCVIDNSYGTDLIGVMAGDPLEHHHHHH	soluble
MEQRFPELNVDLSFEQEFQMRVMEEQVSAMSLQEARELLLQASRLLMMKDNVIRSLVKRAARS	soluble
MEQVIAQVIKRQQTEERPPDVLSQQTTKYEKRNSASLRKRKNSSKLYLKTDQNWMALREKLASNSIHDKGKYRQKRESNVTCFKSGVESGIQNSSVRSRETQVTFCDGTVPSQGLELANSKSTAEISSRNEIPRLTKVVALDCEFVGVGKLGKEHSLARVSIVNFKGEVLYDKYVLNDKEPVVDYRTSVSGIRPEHLRSSDAVSFEQAQRDVYSIIRNRILVGHAIHHDMHALLLSHPRKLIRDTSKWRGLRSHHLSRKTPSLRKLAQEILGIRIQDGEHDSVEDARATLMIYKRFAKEWEMELQTKKVKLARKKHR	soluble
MEQVVIVDAIRTPMGRSKGGAFRNVRAEDLSAHLMRSLLARNPSLTAATLDDIYWGCVQQTLEQGFNIARNAALLAEIPHSVPAVTVNRLCGSSMQALHDAARMIMTGDAQVCLVGGVEHMGHVPMSHGVDFHPGLSRNVAKAAGMMGLTAEMLSRLHGISREMQDQFAARSHARAWAATQSGAFKTEIIPTGGHDADGVLKQFNYDEVIRPETTVEALSTLRPAFDPVSGTVTAGTSSALSDGAAAMLVMSESRARELGLKPRARIRSMAVVGCDPSIMGYGPVPASKLALKKAGLSASDIDVFEMNEAFAAQILPCIKDLGLMEQIDEKINLNGGAIALGHPLGCSGARISTTLINLMERKDAQFGLATMCIGLGQGIATVFERV	soluble
MERAEILGVGTELLYGETLDTNTAEIARSLKPYALKVERTLRVADEVAPLAREVEEAFARARLVVLSGGLGPTPDDVTREAVALALGEPLELDEAVLGEIEAFFRARGRAMPEANRKQAMRIPSATWLKNPRGTAPGWWVRKGGKDLVLLPGPPPEWRPMWQEVLPRLGLPRRPYAERVLKTWGIGESEIVERLGPLFVRGEEVEVGTYPKVHGVEVVVRGREDRVAELAERIKKKLLKEVWGEGEMTLAEAVKRRMEREGATLSTMESLTGGLLGAEITRVPGASRFYLGGVVSYSVGAKARFGVPQDLLSRTVSAETARAMAEAARSLFGSTYALATTGVAGPDPLEGEPPGTVYVALAGPTGAEVRRYRFPGDRETVRLRSVYAALALLVT	soluble
MERKLFAFDIDGTLLNSEKKALDSTREALAKLREQGHLVTLATGRSRYMAQEVIWDLDFTNYVLCNGAAAFVDHEQYYQNLLHAEALERLAQDSDQRGLGFACVGLDDIKKSNQHRAEKMEIAMNSFHFHSPAYDEHFYRQNDIYQALAFYDAEDQCTFEEEYPEFRFIRWHQHSVDVVPKDGSKSATLTYLAKRVGIDAKNIIAFGDGENDREMLSHAGIGVAMGNASPSIQKVATMVTDTNDNDGIWKALKEMKAI	not soluble
MERPISEAYFQEAKRHIPGGVSSPVRAFKAVGGTPPFLVRGEGAYVWDADGNRYLDYVMSWGPLILGHAHPKVLARVRETLERGLTFGAPSPLEVALAKKVKRAYPFVDLVRFVNSGTEATMSALRLARGYTGRPYIVKFRGNYHGHADGLLVEAGSGALTLGVPSSAGVPEEYAKLTLVLEYNDPEGLREVLKRRGEEIAAIIFEPVVGNAGVLVPTEDFLKALHEAKAYGVLLIADEVMTGFRLAFGGATELLGLKPDLVTLGKILGGGLPAAAYAGRREIMEKVAPLGPVYQAGTLSGNPLAMAAGLATLELLEENPGYYAYLEDLGARLEAGLKEVLKEKGLPHTVNRVGSMITVFFTEGPVVTFQDARRTDTELFKRFFHGLLDRGIYWPPSNFEAAFLSVAHREEDVEKTLEALRKAL	soluble
MERPRFSNYYAVRVTGGQEINVALMIEERIKTNNIKEVYSIIVPPNVKGYVILEATGPHVVKLVSQGIRHVRGFAQGLVQKDDIIKFISKTTIAPAYKVGDMVEVTSGPFRGMQAQVVRIDSAKNEVVLNILESSFPLQVTVPIDQVKPVKK	soluble
MERQQQQQQQLRNLRDFLLVYNRMTELCFQRCVPSLHHRALDAEEEACLHSCAGKLIHSNHRLMAAYVQLMPALVQRRIADYEAASAVPSVAAEQPGVSPSGS	soluble
MERREEQPGAAGAGAAPALDFTVENVEKALHQLYYDPNIENKNLAQKWLMQAQVSPQAWHFSWQLLQPDKVPEIQYFGASALHIKISRYWSDIPTDQYESLKAQLFTQITRFASGSKIVLTRLCVALASLALSMMPDAWPCAVADMVRLFQAEDSPVDGQGRCLALLELLTVLPEEFQTSRLPQYRKGLVRTSLAVECGAVFPLLEQLLQQPSSPSCVRQKVLKCFSSWVQLEVPLQDCEALIQAAFAALQDSELFDSSVEAIVNAISQPDAQRYVNTLLKLIPLVLGLQEQLRQAVQNGDMETSHGICRIAVALGENHSRALLDQVEHWQSFLALVNMIMFCTGIPGHYPVNETTSSLTLTFWYTLQDDILSFEAEKQAVYQQVYRPVYFQLVDVLLHKAQFPSDEEYGFWSSDEKEQFRIYRVDISDTLMYVYEMLGAELLSNLYDKLGRLLTSSEEPYSWQHTEALLYGFQSIAETIDVNYSDVVPGLIGLIPRISISNVQLADTVMFTIGALSEWLADHPVMINSVLPLVLHALGNPELSVSSVSTLKKICRECKYDLPPYAANIVAVSQDVLMKQIHKTSQCMWLMQALGFLLSALQVEEILKNLHSLISPYIQQLEKLAEEIPNPSNKLAIVHILGLLSNLFTTLDISHHEDDHEGPELRKLPVPQGPNPVVVVLQQVFQLIQKVLSKWLNDAQVVEAVCAIFEKSVKTLLDDFAPMVPQLCEMLGRMYSTIPQASALDLTRQLVHIFAHEPAHFPPIEALFLLVTSVTLTLFQQGPRDHPDIVDSFMQLLAQALKRKPDLFLCERLDVKAVFQCAVLALKFPEAPTVKASCGFFTELLPRCGEVESVGKVVQEDGRMLLIAVLEAIGGQASRSLMDCFADILFALNKHCFSLLSMWIKEALQPPGFPSARLSPEQKDTFSQQILRERVNKRRVKEMVKEFTLLCRGLHGTDYTADY	soluble
MERTFSEALKNRRTYYSITDQSPIPDQEIECIINLAVRHVPSAFNSQSTRVVLLLGKSHKKLWNIVKDALRKIVPGEAFAKTEEKIDNSFACGYGTVLFFEDQKVVKGLQEAFPSYQENFPGWSLQTSAMHQLAVWVMLEDVGFGASLQHYNPLIDDEVRRAWNLPAHWHLIAEMPFGVPVNKPGEKEFQPLEERIKVFK	not soluble
MESGPAVCCQDPRAELVDRVAAINVAHLEEADEGPEPARNGVDPPPRARAASVIPGSASRPTPVRPSLSARKFSLQERPAGSCLGAQVGPYSTGPASHISPRSWRRPTIESHRVAISDTEDCVQLNQYKLQSEIGKGAYGVVRLAYNESEDRHYAMKVLSKKKLLKQYGFPRRPPPRGSQATQGGPAKQLLPLERVYQEIAILKKLDHVNVVKLIEVLDDPAEDNLYLVFDLLRKGPVMEVPCDKPFPEEQARLYLRDIILGLEYLHCQKIVHRDIKPSNLLLGDDGHVKIADFGVSNQFEGNDAQLSSTAGTPAFMAPEAISDSGQSFSGKALDVWATGVTLYCFVYGKCPFIDDYILTLHRKIKNEAVVFPEEPEVSEDLKDLILRMLDKNPETRIGVSDIKLHPWVTKHGEEPLPSEEEHCSVVEVTEEEVKNSVRLIPSWTTVILVKSMLRKRSFGNPFEPQARREERSMSAPGSLLMKEGCGEGCKSPELPGVQEDEAAS	soluble
MESGREVWPRDPKKAKQAIKQAEFKCEIDDTHETFVSEASRKNYMEAHHLIPLRMQHDFENSLDVVGNIVSICPNCHRLIHYGRDKDKKKVLELLFELEHHHHHH	soluble
MESGSWRPPFSTGKIVGNYGLLKLYLEVAREKGRRDLVDKALISEDDVDMLRRLSASPGATAEDFVNALEERFVERVDPEVASEALARAGINVDGDTARRMIARILAGWLVEMGEEMKLYRLRRSWED	soluble
MESKLNLDFNLVEKARAKAKAIAIDTQEFIEKHTTVTVERAVCRLLGIDGVDTDEVPLPNIVVDHIKENNGLNLGAAMYIANAVLNTGKTPQEIAQAISAGELDLTKLPMKDLFEVKTKALSMAKETVEKIKNNRSIRESRFEEYGDKSGPLLYVIVATGNIYEDITQAVAAAKQGADVIAVIRTTGQSLLDYVPYGATTEGFGGTYATQENFRLMREALDKVGAEVGKYIRLCNYCSGLCMPEIAAMGAIERLDVMLNDALYGILFRDINMQRTMIDQNFSRIINGFAGVIINTGEDNYLTTADAFEEAHTVLASQFINEQFALLAGLPEEQMGLGHAFEMDPELKNGFLYELSQAQMAREIFPKAPLKYMPPTKFMTGNIFKGHIQDALFNMVTIMTNQRIHLLGMLTEALHTPFMSDRALSIENAQYIFNNMESISEEIQFKEDGLIQKRAGFVLEKANELLEEIEQLGLFDTLEKGIFGGVKRPKDGGKGLNGVVSKDENYYNPFVELMLNK	soluble
MESLGSIALFVLVTETRSFTLAGKRLGISSSGVGKSVGRLEESLGVRLFHRSTRSIALTLEGSIFLDRCRRILSELDAAQLELSNARDLPKGRLRISVPLVFGLVMPVVIQFMRTYPEIELDIDFSDRMVDIIDEGFDVVLRTGEPSDSRLMSKRMGSFQLCIVGSPDYFARHGLPEQPADLIHHACLQHKFPSTGKFEHWPLRREPGSEDFELPQTMVCNTTEVLVEVARAGLGITCLPDFMLASAIRKGELIPILSDYTLHTGSFRLFWASSKHLSVRLRVFIDFMHANLFAPARVGQEGRS	not soluble
MESLQSIKEIRKYIENNELVLMYFRSDNSGICYALDPLIEAISKKYSKISSVKVNTGNLPSVPADFKIFTVPEVIIFMNGSIVIEHFKYINFREIEEVLLRYYKCI	not soluble

Reference: the DeepSol protein solubility set
